Earlier results on one substance are cited in PMC5764468.

A value given as a limit tells only on which side of the number the result lay.

This data set has as its target calmodulin (Homo sapiens) (UniProt P0DP23).

As a reminder, the Kd is a measure of binding affinity in units of concentration. Turning to CyaA AC domain AC (from UniProt P0DKX7), the Kd is below 0.1 nM.
